Reference: IntAct's records for PubMed 15294869

Biological target: pir_arath PIR (UniProt Q5S2C3)
Sequence (Q5S2C3 whole entry): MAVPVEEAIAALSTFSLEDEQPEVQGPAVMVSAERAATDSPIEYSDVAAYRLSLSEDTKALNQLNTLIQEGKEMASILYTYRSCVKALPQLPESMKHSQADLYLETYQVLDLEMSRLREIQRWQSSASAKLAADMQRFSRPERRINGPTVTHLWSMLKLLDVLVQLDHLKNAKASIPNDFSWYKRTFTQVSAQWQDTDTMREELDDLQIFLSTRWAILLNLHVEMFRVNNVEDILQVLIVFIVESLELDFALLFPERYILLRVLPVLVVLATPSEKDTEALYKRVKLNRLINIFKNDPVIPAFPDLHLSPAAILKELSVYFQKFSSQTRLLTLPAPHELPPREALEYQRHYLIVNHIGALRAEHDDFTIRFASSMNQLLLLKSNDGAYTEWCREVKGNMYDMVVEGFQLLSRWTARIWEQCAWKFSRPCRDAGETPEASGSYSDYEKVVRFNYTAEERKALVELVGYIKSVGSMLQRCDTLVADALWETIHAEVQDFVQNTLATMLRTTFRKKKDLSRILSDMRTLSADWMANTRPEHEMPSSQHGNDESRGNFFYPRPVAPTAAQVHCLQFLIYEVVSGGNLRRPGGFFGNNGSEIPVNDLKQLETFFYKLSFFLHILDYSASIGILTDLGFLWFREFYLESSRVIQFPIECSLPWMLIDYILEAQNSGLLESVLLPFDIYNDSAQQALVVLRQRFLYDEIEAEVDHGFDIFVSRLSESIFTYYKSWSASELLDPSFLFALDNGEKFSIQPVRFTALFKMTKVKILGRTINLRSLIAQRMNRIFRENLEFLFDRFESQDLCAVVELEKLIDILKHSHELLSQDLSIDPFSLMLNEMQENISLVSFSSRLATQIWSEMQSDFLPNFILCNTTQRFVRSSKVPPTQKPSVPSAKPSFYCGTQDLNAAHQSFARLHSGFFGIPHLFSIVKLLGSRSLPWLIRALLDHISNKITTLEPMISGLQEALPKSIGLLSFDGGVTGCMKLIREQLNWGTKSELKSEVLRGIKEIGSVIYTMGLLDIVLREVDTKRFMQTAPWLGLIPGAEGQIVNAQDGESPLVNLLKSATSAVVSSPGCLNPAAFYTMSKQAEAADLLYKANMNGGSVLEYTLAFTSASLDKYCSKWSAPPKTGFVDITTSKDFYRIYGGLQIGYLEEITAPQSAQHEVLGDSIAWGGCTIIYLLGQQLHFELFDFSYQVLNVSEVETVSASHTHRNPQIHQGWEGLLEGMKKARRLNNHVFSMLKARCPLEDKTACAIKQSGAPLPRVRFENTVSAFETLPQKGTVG

Chain of Rac-like GTP-binding protein ARAC4 (Arabidopsis thaliana (Mouse-ear cress)), Q38919 D120A (Q38919 whole entry D120A): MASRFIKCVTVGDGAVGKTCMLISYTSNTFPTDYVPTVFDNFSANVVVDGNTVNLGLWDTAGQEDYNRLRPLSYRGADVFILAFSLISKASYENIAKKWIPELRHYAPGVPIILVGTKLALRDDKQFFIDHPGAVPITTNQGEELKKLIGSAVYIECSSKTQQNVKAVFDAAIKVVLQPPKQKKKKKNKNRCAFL
Chain of Rac-like GTP-binding protein ARAC4 (Arabidopsis thaliana (Mouse-ear cress)), Q38919 T19N (Q38919 whole entry T19N): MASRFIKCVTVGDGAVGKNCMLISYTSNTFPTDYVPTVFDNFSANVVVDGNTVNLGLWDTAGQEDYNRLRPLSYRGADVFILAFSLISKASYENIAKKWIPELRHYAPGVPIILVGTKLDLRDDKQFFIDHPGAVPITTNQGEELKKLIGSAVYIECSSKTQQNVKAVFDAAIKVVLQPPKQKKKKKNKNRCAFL

Rac-like GTP-binding protein ARAC4 (Arabidopsis thaliana (Mouse-ear cress)), Q38919 D120A
effect of a mutation on the interaction: disrupting interaction

Rac-like GTP-binding protein ARAC4 (Arabidopsis thaliana (Mouse-ear cress)), Q38919 T19N
effect of a mutation on the interaction: disrupting interaction
